Test results as given in PMC4786428, “Recombinational branch migration by the RadA/Sms paralog of RecA in Escherichia coli”.

T1: RadA (Sms) wild type (Escherichia coli, UniProt P24554 1-460)
T1 sequence: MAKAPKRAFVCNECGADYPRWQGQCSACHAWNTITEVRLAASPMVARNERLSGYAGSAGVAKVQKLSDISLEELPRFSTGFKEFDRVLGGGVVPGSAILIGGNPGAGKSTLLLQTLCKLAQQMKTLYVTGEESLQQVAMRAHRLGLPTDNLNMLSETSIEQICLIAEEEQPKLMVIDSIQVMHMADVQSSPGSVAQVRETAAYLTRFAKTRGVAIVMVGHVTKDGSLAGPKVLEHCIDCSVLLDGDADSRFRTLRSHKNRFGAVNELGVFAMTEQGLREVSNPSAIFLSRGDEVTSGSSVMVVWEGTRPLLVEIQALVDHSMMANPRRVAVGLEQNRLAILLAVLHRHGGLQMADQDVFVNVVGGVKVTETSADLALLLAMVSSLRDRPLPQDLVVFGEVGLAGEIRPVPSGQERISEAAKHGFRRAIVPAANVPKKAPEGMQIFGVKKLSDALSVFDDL

B1: poly(dA)33 (ssDNA)
DNA: AAAAAAAAAAAAAAAAAAAAAAAAAAAAAAAAA
B2: poly(dT)30 (ssDNA)
DNA: TTTTTTTTTTTTTTTTTTTTTTTTTTTTTT

Legend:
[1] = target: T1, RadA (Sms) wild type; test: competition; unlabeled competitor vs labeled poly(dT)30, 1 mM ADP; 50 mM Tris-HCl pH 7.5, 10 mM MgCl2, 0.1 mM EDTA, 75 mM NaCl, 5 mM DTT, 100 ug/ml BSA, 1 mM nucleotide, 100 fmol DNA, 37 C for 20-30 min; 6% TBE polyacrylamide gel at room temperature; details: protein: recombinant; tags: eXact tag cleaved; 2 extra N-terminal residues Thr-Ser remain; chain copies: 6
[2] = target: T1, RadA (Sms) wild type; test: EMSA; 1 mM ADP (standard); apparent; Hill coefficient 1.5; 50 mM Tris-HCl pH 7.5, 10 mM MgCl2, 0.1 mM EDTA, 75 mM NaCl, 5 mM DTT, 100 ug/ml BSA, 1 mM nucleotide, 100 fmol DNA, 37 C for 20-30 min; 6% TBE polyacrylamide gel at room temperature; details: protein: recombinant; tags: eXact tag cleaved; 2 extra N-terminal residues Thr-Ser remain; chain copies: 6

Row | Binder | binding result [1] | Kd [2] [nM]
1 | B1 | no binding | 
2 | B2 |  | 110 ± 14
